Measured values published in patent publication US8440430, “Modified dicer polypeptide and methods of use thereof” (The Regents of the University of California).

How the values were obtained:
Details in all cases: tags: N-terminal His6 removed by site-specific protease, baculovirus/Sf9
[1] = target: ΔdsRBD human Dicer (Homo sapiens, UniProt Q9UPY3 SEQ:1-1922, del1844-1922); test: filter; within three-fold of full-length; dsRBD deletion did not significantly affect binding; 5 mM EDTA
Description: (§1) A serial dilution of proteins were incubated in a buffer containing 20 mM Tris-Cl (pH 7.5), 25 mM NaCl, 5 mM EDTA, 1 mM dithiothreitol (DTT), 1% glycerol and ~0.5-1 nM (1500 c.p.m.) of ^32P-labeled duplex RNA substrate (one strand was labeled) at room temperature for 60 min […] After this incubation, 25 µl of each reaction were used for dot-blotting, which was conducted in a dot-blot apparatus equipped with 3 membranes of Tuffryn, Protran and Nytran (from top to bottom). After dried, the bound (on Protran) or free (on Nytran) RNAs were detected and quantified with Phosphoimager (GE Healthcare). Percentage of bound RNAs was calculated by 100 multiplied by the ratio of radioactivity (volumes) detected on the Protran membrane over the total input volumes (radioactivity). The bound RNAs (%) (Y-axle) were plotted against protein concentrations (X-axle). K_d was determined by global fitting to the equation of kobsd = (kmax ×[Dicer])(K_{1/2} + [Dicer])^-1, here $kobsd$ is the observed rate constant at a particular protein concentration, $kmax$ is the maximal rate constant with saturating protein, and K_{1/2} (or K_d) is the protein concentration that provides half the maximal rate. Curve fitting was conducted with KleidaGraph (Synery Software).
(§2) RNA. […] These values are similar to those measured previously (Provost et al, 2002; Vermeulen et al, 2005).

[2] = target: wild-type human Dicer (flhDcr) (Homo sapiens, UniProt Q9UPY3 SEQ:1-1922); test: filter; 5 mM EDTA, no free Mg2+, 25 mM NaCl, pH 7.5, room temperature
Description: as §1, §2

[3] = target: T1, ΔDEAD human Dicer (lacks DExD/H-box domain, aa 1-604 deleted) (Homo sapiens, UniProt Q9UPY3 SEQ:1-1318); test: filter; within three-fold of full-length; 5 mM EDTA; exact Kd only in figure
T1 chain: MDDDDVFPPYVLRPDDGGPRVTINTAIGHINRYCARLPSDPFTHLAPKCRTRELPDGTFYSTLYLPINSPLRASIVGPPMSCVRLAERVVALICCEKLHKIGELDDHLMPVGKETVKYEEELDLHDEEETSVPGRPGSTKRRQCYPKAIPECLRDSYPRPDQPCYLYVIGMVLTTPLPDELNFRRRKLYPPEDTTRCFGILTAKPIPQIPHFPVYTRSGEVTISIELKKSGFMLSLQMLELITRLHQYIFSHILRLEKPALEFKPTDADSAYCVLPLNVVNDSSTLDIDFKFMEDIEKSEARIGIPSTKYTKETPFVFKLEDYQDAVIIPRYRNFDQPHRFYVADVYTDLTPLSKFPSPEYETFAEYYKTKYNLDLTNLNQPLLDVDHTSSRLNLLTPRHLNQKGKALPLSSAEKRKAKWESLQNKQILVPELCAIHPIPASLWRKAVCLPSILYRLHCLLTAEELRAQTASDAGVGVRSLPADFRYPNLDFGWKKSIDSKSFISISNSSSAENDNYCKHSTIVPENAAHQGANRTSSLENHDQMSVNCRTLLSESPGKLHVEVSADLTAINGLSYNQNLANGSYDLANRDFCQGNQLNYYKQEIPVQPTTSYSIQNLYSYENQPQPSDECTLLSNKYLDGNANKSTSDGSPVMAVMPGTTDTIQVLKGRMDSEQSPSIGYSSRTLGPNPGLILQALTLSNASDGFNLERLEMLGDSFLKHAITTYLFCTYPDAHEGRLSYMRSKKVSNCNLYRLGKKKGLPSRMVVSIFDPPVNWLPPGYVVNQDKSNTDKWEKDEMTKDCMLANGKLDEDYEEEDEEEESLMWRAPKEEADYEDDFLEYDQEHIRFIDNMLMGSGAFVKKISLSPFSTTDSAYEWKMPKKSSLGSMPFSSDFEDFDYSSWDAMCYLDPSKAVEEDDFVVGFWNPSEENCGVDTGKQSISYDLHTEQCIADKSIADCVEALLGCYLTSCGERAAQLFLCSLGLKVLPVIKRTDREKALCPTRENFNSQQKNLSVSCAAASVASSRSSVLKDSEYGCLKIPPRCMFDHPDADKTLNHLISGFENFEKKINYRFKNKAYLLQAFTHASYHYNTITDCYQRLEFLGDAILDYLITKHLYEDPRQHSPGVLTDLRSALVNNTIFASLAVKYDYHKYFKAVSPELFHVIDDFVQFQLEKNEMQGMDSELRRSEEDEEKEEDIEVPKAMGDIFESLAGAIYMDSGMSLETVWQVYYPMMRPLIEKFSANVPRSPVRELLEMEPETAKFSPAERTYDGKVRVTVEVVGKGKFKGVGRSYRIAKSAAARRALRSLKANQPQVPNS
Description: After dried, the bound (on Protran) or free (on Nytran) RNAs were detected and quantified with Phosphoimager (GE Healthcare). Percentage of bound RNAs was calculated by 100 multiplied by the ratio of radioactivity (volumes) detected on the Protran membrane over the total input volumes (radioactivity). The bound RNAs (%) (Y-axle) were plotted against protein concentrations (X-axle). K_d was determined by global fitting to the equation of kobsd = (kmax ×[Dicer])(K_{1/2} + [Dicer])^-1, here $kobsd$ is the observed rate constant at a particular protein concentration, $kmax$ is the maximal rate constant with saturating protein, and K_{1/2} (or K_d) is the protein concentration that provides half the maximal rate. Curve fitting was conducted with KleidaGraph (Synery Software).
RNA. […] These values are similar to those measured previously (Provost et al, 2002; Vermeulen et al, 2005). […] The protein lacking both the DExD/H-box domain and the dsRBD (2DD) bound ~3-4 fold more weakly to either substrate relative to full-length Dicer (FIG. 3A-C). It is possible that this severely truncated protein is generally destabilized, or that the DExD/H-box domain plays a small but measurable role in substrate binding.

[4] = label: 5'-32P on one strand, perfect duplex with 2-nt 3' overhangs on both ends

ΔdsRBD human Dicer, sequence (Q9UPY3 1-1843, stated change not applied): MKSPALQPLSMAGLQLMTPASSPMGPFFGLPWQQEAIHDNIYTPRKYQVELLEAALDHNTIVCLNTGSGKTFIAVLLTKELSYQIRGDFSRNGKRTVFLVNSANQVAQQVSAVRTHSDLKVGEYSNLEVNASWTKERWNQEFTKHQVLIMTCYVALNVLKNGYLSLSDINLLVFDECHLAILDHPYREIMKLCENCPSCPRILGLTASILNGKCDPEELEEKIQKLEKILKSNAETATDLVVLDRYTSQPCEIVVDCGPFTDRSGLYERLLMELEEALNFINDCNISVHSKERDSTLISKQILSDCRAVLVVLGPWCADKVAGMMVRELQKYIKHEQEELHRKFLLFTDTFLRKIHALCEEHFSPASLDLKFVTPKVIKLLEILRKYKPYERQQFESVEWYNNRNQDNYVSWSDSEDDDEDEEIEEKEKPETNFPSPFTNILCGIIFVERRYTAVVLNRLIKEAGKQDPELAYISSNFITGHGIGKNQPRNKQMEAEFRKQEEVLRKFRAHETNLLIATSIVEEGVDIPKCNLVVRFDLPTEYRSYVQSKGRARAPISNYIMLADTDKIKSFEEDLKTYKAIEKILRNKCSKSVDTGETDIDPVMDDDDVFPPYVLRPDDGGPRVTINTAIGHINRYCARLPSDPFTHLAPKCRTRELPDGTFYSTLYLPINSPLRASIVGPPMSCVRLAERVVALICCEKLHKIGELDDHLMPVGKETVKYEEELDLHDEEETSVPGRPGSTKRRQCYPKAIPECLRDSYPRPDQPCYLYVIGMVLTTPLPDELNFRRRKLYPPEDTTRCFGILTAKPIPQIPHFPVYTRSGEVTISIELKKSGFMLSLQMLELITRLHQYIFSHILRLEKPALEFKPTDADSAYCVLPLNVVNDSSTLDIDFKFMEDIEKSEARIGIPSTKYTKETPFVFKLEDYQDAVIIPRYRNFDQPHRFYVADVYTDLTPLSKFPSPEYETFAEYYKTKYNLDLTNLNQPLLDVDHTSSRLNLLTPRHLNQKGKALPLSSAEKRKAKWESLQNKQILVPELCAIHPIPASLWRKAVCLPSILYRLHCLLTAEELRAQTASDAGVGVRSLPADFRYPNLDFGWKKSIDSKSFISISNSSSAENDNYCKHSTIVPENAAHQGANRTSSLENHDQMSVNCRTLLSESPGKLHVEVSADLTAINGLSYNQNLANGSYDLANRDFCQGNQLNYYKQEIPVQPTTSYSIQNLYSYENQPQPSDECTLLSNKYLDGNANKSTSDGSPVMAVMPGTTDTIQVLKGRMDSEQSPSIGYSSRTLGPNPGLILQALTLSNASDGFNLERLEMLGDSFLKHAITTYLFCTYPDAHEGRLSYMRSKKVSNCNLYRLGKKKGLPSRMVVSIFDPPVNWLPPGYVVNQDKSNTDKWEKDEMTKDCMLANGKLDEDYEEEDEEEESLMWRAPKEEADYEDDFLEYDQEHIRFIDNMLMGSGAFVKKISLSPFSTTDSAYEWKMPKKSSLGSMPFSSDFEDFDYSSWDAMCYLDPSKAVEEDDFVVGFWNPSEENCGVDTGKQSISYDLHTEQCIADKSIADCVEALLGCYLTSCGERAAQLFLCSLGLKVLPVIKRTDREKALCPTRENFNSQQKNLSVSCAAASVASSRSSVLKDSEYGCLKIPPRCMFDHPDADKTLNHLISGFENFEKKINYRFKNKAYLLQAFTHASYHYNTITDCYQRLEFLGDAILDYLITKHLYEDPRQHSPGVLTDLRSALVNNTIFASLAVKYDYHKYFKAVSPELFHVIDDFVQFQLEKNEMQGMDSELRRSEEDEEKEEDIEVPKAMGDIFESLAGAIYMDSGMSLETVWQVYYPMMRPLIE

B1: 37ab duplex RNA (dsRNA)
RNA 1: UGAGGUAGUAGGUUGUAUAGUUUGAAAGUUCACGAUU
RNA 2: UCGUGAACUUUCAAACUAUACAACCUACUACCUCAUU
Kd relative to full-length Dicer [1, 4]: ≤ 3 fold of full-length Kd (75 nM)
Kd [2, 4]: 75 nM
Kd relative to full-length Dicer (fold) [3, 4]: ≤ 3 fold of full-length Kd (75 nM)

B2: pre-hlet-7 hairpin RNA (ssRNA)
RNA: UGAGGUAGUAGGUUGUAUAGUUUUAGGGUCACACCCACCACUGGGAGAUAACUAUACAAUCUACUGUCUUACC
Kd relative to full-length Dicer ([1]; label: 5'-32P, hairpin): ≤ 3 fold of full-length Kd (30 nM)
Kd ([2]; label: 5'-32P, hairpin): 30 nM
Kd relative to full-length Dicer (fold) ([3]; label: 5'-32P, hairpin): ≤ 3 fold of full-length Kd (30 nM)
